Test results as given in the nanobody polyreactivity screen of Harvey et al. (2022).

Assay: yeast display, Sf9 membrane polyspecificity reagent, FACS + sequencing; frameworks hold sequencing errors
In short: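 Sorting gates, low and high (top ~1%), were placed on anti-HA fluorescence to track expression and on streptavidin fluorescence to track reagent binding. A clone's polyreactivity label is taken from the gate it came out of. The reagent was 10% biotinylated, detergent-solubilized Sf9 membrane, applied for 1 hour at 4 °C to galactose-induced yeast display cells.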

Sequence	polyreactivity (PSR sort gate)
QVQLVESGGGLVQAGGSLRLSCAASGSIFVYYAMGWYRQAPGKERELVATITNDGSTYADSVKGRFTISRDNAKNTVYLQMNSLKPEDTAVYYCAAKIPSDRTIYDYWGQGTQVTVSS	low polyreactivity
QVQLVESGGGLVQAGGSLRLSCAASGFTFDYYAMGWYRQAPGKERELVATITSGGRTNYADSVKGRFTLSRDNAKNTVYLQMNSLNPEDTAVYYCAVDWWNVEYFYSATSGDYWGQGTQVTVSS	low polyreactivity
QVQLVESGGGLVQAGGSLRLSCAASGRTFKYNAMGWYIQAPGKERELVAAISSRGGSTYYADSVKGRFTISRDNAKNTVYLQMNSLKPEDTAVYYCAKATSSSEYGYDYWGQGTQVTVSS	high polyreactivity
QVQLVESGGGLVQAGGSLRLSCAASGSIFAYNAMGWYRQAPGKEREFVASISSNGDSTFYADSVKGRFTISRDNAKNTVYLQMNSLKPEDTAVYYCAADVIAWDGYLWQRYDYWGQGTQVTVSS	low polyreactivity
QVQLVESGGGLVQAGGSLRLSCAASGRIFSSNVMGWYRQAPGKERELVAAITVTGGSTYYAYSVKGRFTISRDNAKYTVYLLMNSLNPEDTAVYFCAARVKGRFPYDYWGQGSQVTVSS	low polyreactivity
QVQLVESGGGLVQAGGSLRLSCAASGVIFGAYAMGWYRQAPGKERELVAAISSRGTSTYYADSVKGRFTISRDNAKNTVYLQMNSLKPEDTAVYYCNVYYIPLRRYDYWGQGTQVTVSS	high polyreactivity
QVHLVESGGGLVQAGGSLRLILAASGYIFSSNAMGWYRQAPGKEREFVADISSTGGSTYYADSVKGRFTISRDNAKNTVYCQMNILKPEDTGVYYCAAYIRRYFHYDYWGQGTQVTGSS	high polyreactivity
QVQLVESGGGLVQAGGSLRLSCAASGRIFGYYAMGWYRQAPGKERELVAPITKTVGGTYYADSVKGRFTISRDNAKNTVYLQMNSLKPEDTAVYYCAARVWTGNGRSKGAYDYWGQGTQVTVSS	high polyreactivity
QVQLVESGGGLVQAGGSLRLSCAASGRTLRYNTMGWYRQAPGKERELVAAITRSGTGTNYADSVKGRFTISRDNAKNTVYLQMNSLKPEDTAVYYCAAAPFPRRRYDYWGQGTQVTVSS	high polyreactivity
QDQLVESGGGLVQAGGRRRLSCAASGSIFGGYSMGWYRQAPGKERELVAAISRRGGNTYYADSVKGRFTISGDNAKNTVYLQMNSLKPDDTAVYYCAVRWPSARIPVKLDYWVQGTQVTVSS	high polyreactivity
QVQLVESGGGLVQAGGSLRLSCAASGRTFVSYAMGWSRQAPGKERELVATITGSTGGTYYADSVKGRFTISRDNAKNTVYLQMNSLKPEDTAVYYCNKDYYYNPGNVASGYDYWGQGTQVTVSS	low polyreactivity
QVQLVESGGGLVQAGGSLRLSCAASGRIFGKYAMGWYRQAPRKERELVARISFSGGTTYYADSVKGRFTISRDNAKNTVYLQMKSLKPEDTAVYYGNARRVWSQRWAYDSWGQGTQVTVSS	high polyreactivity
QVQLVESGGGLVQAGGSLRLSCAASGSIFKGYAMGWYRQAPGKERELVAAITYSGGSTYYADSVKGRFTISRDNAKNTVYLQMNSLKPEDTAVYYCAADSEQDNLRYYRWVWYYYWGQGTQVTVSS	low polyreactivity
QVQHVESGGGLVQAGGSLRLSCAASVSIFEYYAMGWDRRAHGKERELVARITDSGGSTYADSVKGRFTISRDNAKNTVYLQMSSLKPEDTAVYYCAADDNYFDFDYWGQGTQVTVSS	low polyreactivity
QVQLVESGGGLVQAGGSLRLSCAASGSIFYDYTMGWSRQAPGKERELVAAINSGGSTNYADSVKGRFTISRDNAKNTVYLQMNSLKPEDTAVYYCAAEPQFAFLDSRLWGSDYWGQGTQVTVSS	low polyreactivity
HVQLVESGGGLVQAGGSLRLSCAASGFTFRLYAMGWYRQAPGKERELVAAINWGGGSTRYADSVKGRFTISRDNAKNTVYLQMNSLKPEDTAVYYCAARRFAYYFQYLGGGYWGQGTQVTVSS	high polyreactivity
QVQLVESGGGLVQAGGSLRLSCAASGLIFNEYAMGWYRQAPGKERELVAAISWSDGGTSYADSVKGRFTISRDNAKNTVYLQMNSLKPEDTAVYYCAKGPRGAHRTHGAYVEMEYWGQGTQVTVSS	low polyreactivity
QVQLVESGGGLVQAGGSLRLSCAGSGRIFGGYAMGWYRQAPGTERELVAAISRRGGSTYYADSVKGRFTISRDNAKNTVYLQMNSLKPEDTAVYYCARDYGGVGAPGSAGAYDYWGQGTQVTVSS	high polyreactivity
QVQLVESGGGLVQAGGSLRLSCAASGRIFRRYVMGWYRPAPGKERELVATINSNGGSTYYADSVKGRFTISRDNAKNTVYLQMNSLKPEDTAVYYCAAYYRWIGGRYTPYYYWGQATQVTVSS	high polyreactivity
QVQLVESGGGLVQAGGSLRLSCAASGRIFPAYAMGWYRQAPGKERELVASIRRGGITYADSVKGRFTISRDNAKNTVYLQMNSLKPEDTAVYYCARPQWRDWYGYWGQGTQVTVSS	low polyreactivity
QVQLVESGGGLDLAGGSLRLSCASSGLTFFYYAMAWYRQAPGKEMEFVASISRSGGSTYYADSVKGRFTISRDNAKNTVSLQKNSLKPEDTAVYYCAAVERRTPGYGYDYWGQGTQVTVSS	high polyreactivity
QVQLVESGGGLVQAGGSLRLSCAASGSTLSYNAMGWYRPATGKERELVAAISWSDGGTYYADSVKGRFTISRDNAKNTVYLQMNSLKPEDTAVYYCNAESQWSYYFIYDYWGQGTQVTVSS	high polyreactivity
QVQLVESGGGLVQAGGSLRLSCAASGFTFRAYTMGWYRQAPGKERELVAAITYSGGRTYYADSVKGRFTISRDNAKNTVYLQMNSLKPEDTAVYYCATRGWALSEYYYWGQGTQVTVSS	high polyreactivity
QVQLQESDGGLVQAGGSLRLSCAASGSISPQYYMGWYRQAPGKEREYVAISKGTTTYSADSVKGRLTISRVNAKNTVYLQMNSLKPEDTAVYCCAAGRWLQKVHAYWDQGTQVTVSS	low polyreactivity
QVQLVESGGGLVQAGGSLRLSCDASGSTSKTYAMGWYRQAPGKERELVAVISYGGTTYYADSVKGRFTISRDNAKNTVYLQLNSLKPEDTAVYYCAARAWHRRGVPHYYWGQGSQVTVSS	high polyreactivity
QVQHVESGGGIVQAGGSLRLSCAASGSIFVRYAMGWYRQAPGKERESVAAISASGSSTYYADSVKGRFTISRDNAKNTVYLQMNSLKPEDTADYYCNAVRARRFDYWGQGTQVTVSS	high polyreactivity
QVQHVESGGGLVQAGGSLRLSCAASGRIFPRYAMGWYGQTPGKERELVADISRSGGSTYYADSVKGRFTISRDNAKNSVYLQMNSLKPEDTAVYYCAASQYRRVKQGNYWGQGTQVTVSS	high polyreactivity
QVQLVESGGGLVQAGGSLRLSCAASGSIFVYYAMGWYRQAPGKERELVAGISTSGGSTYYADSVKGRFTISRDNAKNTVYLQMNSLKPEDTAVYYCAAVDSFGYYKLYEYWGQGTQVTVSS	high polyreactivity
QVQLVESGGGLVQAGGSLRLSCAASGFTFSYYAMGWYRQAPGKERELVARISFSGTRTYYADSVKGRFTISRDNAKNTVYLQMNSLKQEDTAVYYCAARLGYVGITARYDYWGQGTQVTVSS	high polyreactivity
QVHLVESGGGLVQAGGSLRLSCAATGSTFAHNDMGWYRQAPGKERELVAAITWGDSSTYYADSVKGRFTISRDNAKNTVYLQMNSLKPEDTAVYYCAKDYGFTGYGYWGQGTQVTVSS	low polyreactivity
